Laboratory results as given in article PMC11740656.
Several values for one entry are separate records, joined by “and”; a condition that tells them apart may be missing. Equal entries are not always repeated.

Target: human CLDN4 (YFP- or CFP-tagged) (human)
Assay: FRET or BRET

## human CLDN8 (YFP- or CFP-tagged) (natural protein)
  stoichiometry N (hCLDN8:hCLDN4): 0.5 and 0.25
